The assay concerns the target PpbHLH1 (Phalaenopsis pulcherrima).

PpMYB1 (natural protein) returned a dual-luciferase assay in tobacco leaves: PpANS promoter activity with PpMYB1 and PpbHLH1 co-expressed, against PpMYB1 alone of 4.7 fold.

These data come from PMC12292641.
